In paper PMC12617615, “Decoding substrate recognition in malapain-2 through structural and mutational insights” (Computational and Structural Biotechnology Journal, 2025):

Key:
[1] = test system: Cc1cc(=O)oc2cc(NC(=O)[C@H](CCCNC(=N)N)NC(=O)[C@H](CC(C)C)NC(=O)OCc3ccccc3)ccc12; test: purified protein; conditions: 100 mM sodium acetate pH 5.0, 10 mM DTT, 37 °C, 20 nM enzyme, substrate range 0.1–100 μM
Text: (§1) fluorogenic AMC release, Michaelis-Menten on malapain-2 (MP-2)

[2] = test system: Cc1cc(=O)oc2cc(NC(=O)[C@H](CCCNC(=N)N)NC(=O)[C@H](CCCNC(=N)N)NC(=O)OCc3ccccc3)ccc12; test: purified protein; conditions: 100 mM sodium acetate pH 5.0, 10 mM DTT, 37 °C, 20 nM enzyme, substrate range 0.1–100 μM
Text: as §1

## malapain-2 (MP-2) (Plasmodium malariae)
[1]
  Km: 111.2 ± 1.2 µM
[2]
  Km: 846.4 ± 0.6 µM
